Source: the supplement of paper PMC9732359
± gives the uncertainty stated by the source.

Experiment: protein stability index of a GFP-peptide fusion (yeast GPS) (PSI 1-4); higher = more stable; sorted into four equal gates, so the index is relative within each strain
Outline: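 For each peptide, the protein stability index sums the read frequency in every gate after multiplying it by the gate number. Read frequencies came from plasmids that were PCR-amplified from each gate and Illumina-sequenced, with reads assigned to strains by barcodes. The gates were four equal bins of GFP/Cherry fluorescence ratio applied to mid-log yeast in leucine-free medium carrying a pooled library of tiled 17-residue yeast protein peptides fused downstream of GFP on a Cherry-expressing plasmid.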

Sequence | protein stability index (doa10∆) | protein stability index (pdr5∆) | protein stability index (san1∆) | protein stability index (ubr1∆)
AKKRKTLILIQNPENLL [SIR3] | 3.04 ± 0.094 | 2.54 ± 0.099 | 3.11 ± 0.092 | 2.78 ± 0.096
AKKTSTSVDGKKRSKVR [HTB2] | 3.05 ± 0.19 | 2.98 ± 0.23 | 2.96 ± 0.27 | 3.31 ± 0.075
AKLNHLKKLEKFMELER [SWI3] | 2.9 ± 0.064 | 2.83 ± 0.069 | 3.03 ± 0.054 | 2.66 ± 0.058
AKPDNLANFSNEVAMNN [SWP82] | 3.22 ± 0.082 | 3.21 ± 0.078 | 3.13 ± 0.052 | 3.23 ± 0.067
AKRDYIISRLNADFQKP [FAS1] | 3.32 ± 0.13 | 3.07 ± 0.085 | 2.94 ± 0.091 | 3.22 ± 0.077
AKYHAKLNKKLQHLRSR [SRP68] | 3.3 ± 0.088 | 3.44 ± 0.078 | 3.26 ± 0.046 | 3.07 ± 0.059
ALERYDEAEGRFEVINN [SMC1] |  | 1.12 ± 0.17 |  | 
ALFLSKINRPPVSVSRI [RPL18A] | 2.29 ± 0.14 | 1.63 ± 0.076 | 1.6 ± 0.14 | 2.16 ± 0.16
ALGQDTEKMEEQLDLLS [MED11] | 3.03 ± 0.099 | 3.09 ± 0.082 | 2.99 ± 0.073 | 3.31 ± 0.064
ALHYLVPFIIAAMVIMH [COB] | 1.73 ± 0.066 | 1.29 ± 0.061 | 1.61 ± 0.15 | 1.4 ± 0.055
ALIKFMEYHISNTDETK [FAS2] | 2.77 ± 0.1 | 2.5 ± 0.077 | 2.59 ± 0.12 | 2.3 ± 0.055
ALKNACNSIINKLGALK [RPB11] | 2.89 ± 0.29 |  | 2.95 ± 0.11 | 3.17 ± 0.15
ALLGDKIYNFGELLHHP [RPN9] |  |  | 2.36 ± 0.29 | 
ALLRPGRLDRKVEIPLP [RPT4] | 2.99 ± 0.28 |  |  | 
ALLRSGRLDRKIEFPLP [RPT5] |  |  |  | 3.43 ± 0.18
ALLTVLKALSHHYNPKT [BRR2] | 2.28 ± 0.07 | 2.25 ± 0.051 | 1.91 ± 0.081 | 2.41 ± 0.062
ALPDAVTIIEPKEEEPI [RPS3] | 2.93 ± 0.059 | 2.99 ± 0.065 | 3.06 ± 0.061 | 3.04 ± 0.058
ALPHVEINQVSLALVIR [RGR1] | 1.91 ± 0.12 | 3 ± 0.22 | 2.24 ± 0.13 | 2.71 ± 0.086
ALRRRVGPSEQNFAEED [REC8] | 3.37 ± 0.12 | 3.51 ± 0.15 | 3.39 ± 0.11 | 3.24 ± 0.098
ALVAGIERYPSKVTKKH [RPL27B] | 1.86 ± 0.082 | 1.99 ± 0.063 | 1.47 ± 0.12 | 1.96 ± 0.2
ALYRVNDLRDMILNYNP [UBP6] | 2.81 ± 0.12 | 2.73 ± 0.19 | 2.81 ± 0.17 | 2.99 ± 0.12
AMFEICLKRGWGHPTRM [BRR2] |  |  | 2.21 ± 0.14 | 2.96 ± 0.18
AMHYSSNIELAFSSVEH [COB] | 1.93 ± 0.058 | 1.9 ± 0.06 | 1.91 ± 0.087 | 2.09 ± 0.082
AMIALSMILIQQTEKLN [RPN2] | 1.32 ± 0.077 | 1.35 ± 0.066 | 1.45 ± 0.14 | 1.6 ± 0.064
ANAVQNNNGNSAASKKK [SRP21] | 3.06 ± 0.11 | 3.29 ± 0.11 | 2.96 ± 0.092 | 2.93 ± 0.11
ANFKTSKKYQLADWRIR [RRP6] | 2.97 ± 0.1 | 3.05 ± 0.096 | 2.84 ± 0.15 | 2.92 ± 0.1
ANLRVLNSYWVNQDSTY [RPL15A] | 2.62 ± 0.072 | 2.23 ± 0.067 | 2.78 ± 0.058 | 2.37 ± 0.064

Sequence | protein stability index (doa10∆) | protein stability index (pdr5∆) | protein stability index (san1∆) | protein stability index (ubr1∆)
ANNNGSNLQRAQNVPMN [GAL11] | 3.09 ± 0.096 | 3.54 ± 0.12 | 3.17 ± 0.099 | 3.09 ± 0.085
ANNNINSASSAPTPAAP [SWI1] | 2.99 ± 0.064 | 2.88 ± 0.077 | 3.05 ± 0.078 | 2.97 ± 0.064
ANNQEYDLNFKLRETLV [SMC1] |  |  | 3.63 ± 0.18 | 3.41 ± 0.21
ANSESGHYQAFIRDELD [UBP6] | 3.31 ± 0.28 | 2.76 ± 0.11 |  | 2.66 ± 0.17
ANSQIQAYEEIISSNEN [YIL149C/MLP2] | 2.95 ± 0.19 | 3.46 ± 0.17 | 3.31 ± 0.22 | 3.45 ± 0.12
ANSSITPAFGSNNTGNT [YJL041W/NSP1] | 2.65 ± 0.068 | 2.86 ± 0.049 | 2.72 ± 0.048 | 2.87 ± 0.031
ANTSNNLFGATANANKP [YJL041W/NSP1] | 3.32 ± 0.066 | 3.27 ± 0.044 | 3.24 ± 0.043 | 3.22 ± 0.045
ANVEILAVEDKPSPIDS [CSL4] | 2.98 ± 0.095 | 2.97 ± 0.13 | 2.57 ± 0.15 | 3.12 ± 0.063
ANVVDITNDWEQPCVDI [YJR042W/NUP85] | 3.3 ± 0.071 | 3.41 ± 0.062 | 3.23 ± 0.051 | 3.12 ± 0.06
ANYIKERTKNAQFIVIS [SMC4] | 2.76 ± 0.11 | 1.5 ± 0.067 | 1.49 ± 0.11 | 2.27 ± 0.071
APEIPEDLYYLIKKAVS [RPS13] | 2.94 ± 0.081 | 2.92 ± 0.096 | 3.07 ± 0.079 | 2.69 ± 0.13
APSIGRWYQLIATGCKD [YGL100W/SEH1] | 1.52 ± 0.089 | 1.65 ± 0.068 | 1.64 ± 0.11 | 2.17 ± 0.071
AQAQAQAQAQAQAQAQA [GAL11] | 2.95 ± 0.03 | 3.23 ± 0.035 | 2.98 ± 0.026 | 3.09 ± 0.033
AQASEEENDLQQKLNTR [REC8] | 2.96 ± 0.26 |  |  | 
AQAWINLGEYYAQIGDK [RPN7] | 2.41 ± 0.11 | 2.77 ± 0.1 | 2.8 ± 0.11 | 2.76 ± 0.12
AQDEVFSLAFSPNRYWL [ASC1] | 2.78 ± 0.24 | 2.75 ± 0.17 | 2.54 ± 0.18 | 2.38 ± 0.19
AQDFINAYASFLQRQGK [RPS19A] | 2.91 ± 0.061 | 3.07 ± 0.064 | 3.01 ± 0.06 | 3 ± 0.046
AQDFKTDLRFQSSAIGA [HHT1] | 1.32 ± 0.12 | 1.41 ± 0.14 | 1.24 ± 0.19 | 1.3 ± 0.23
AQFIVISLRNNMFELAQ [SMC4] | 2.14 ± 0.11 | 1.67 ± 0.082 | 1.51 ± 0.092 | 2.02 ± 0.09
AQFVSNKQYHQANSNLT [NUT1] | 2.94 ± 0.081 | 3.21 ± 0.076 | 3 ± 0.1 | 3.23 ± 0.092
AQLTHSLRRIRDEMSKA [MED8] | 2.33 ± 0.12 | 2.35 ± 0.07 | 2.02 ± 0.11 | 1.99 ± 0.052
AQYGIKALPIRRDDEVL [RPL26A] | 3.63 ± 0.18 | 3.32 ± 0.17 | 3.43 ± 0.061 | 3.28 ± 0.14
ARAPKYASKAVPHYNRL [RPL25] | 2.94 ± 0.078 | 3 ± 0.065 | 2.79 ± 0.052 | 2.98 ± 0.047
ARENAPSIIFIDEVDSI [RPT3] | 2.75 ± 0.14 | 2.46 ± 0.11 | 2.74 ± 0.06 | 2.41 ± 0.066
ARKGLTPSQIGVLLRDA [RPS13] | 2.91 ± 0.26 |  | 2.09 ± 0.21 | 2.32 ± 0.041
ARKHKLKTLVQGPRSYF [RPS27A] | 3.15 ± 0.14 | 3.34 ± 0.19 | 2.27 ± 0.14 | 2.72 ± 0.19
ARKYLQTRWGLPSGRQD [FAS2] | 2.54 ± 0.087 | 2.09 ± 0.12 | 2.12 ± 0.14 | 3.16 ± 0.11
